Source: patent publication US20250188136A1, “AV3 MUTANT POLYPEPTIDES FOR PEST CONTROL” (Vestaron Corporation, priority 2021, published 2025)
Entries after “also recorded” stand apart in the source; their conditions may differ. Ends that are not written are not given here.

Key:
houseflies = experiment: Housefly injection assay (knock-down); assay type: in vivo, Musca domestica; settings: for housefly knock-down / insecticidal activity relative to Av3b: knock-down at 5 hours post-injection; for Activity: knock-down at 5 hours post-injection normalized to Av3b, Yes = insecticidal activity maintained
Procedure: An exemplary housefly injection bioassay is as follows: conditioned media is serially diluted to generate full dose-response curves from the housefly injection bioassay. Before injection, adult houseflies (Musca domestica) are immobilized with CO2, and 12-18 mg houseflies are selected for injection. A microapplicator, loaded with a 1 cc syringe and 30-gauge needle, is used to inject 0.5 μL per fly, doses of serially diluted conditioned media samples into houseflies through the body wall of the dorsal thorax. The injected houseflies are placed into closed containers with moist filter paper and breathing holes on the lids, and they are examined by knock-down ratio or by mortality scoring at 24 hours post-injection. Normalized yields are calculated. Peptide yield means the peptide concentration in the conditioned media in units of mg/L. However, peptide yields are not always sufficient to accurately compare the strain production rate. […] A culture with a high cell density may produce a higher concentration of the peptide in the media, even though the peptide production rate of the strain is lower than another strain which has a higher production rate. Accordingly, the term “normalized yield” is created by dividing the peptide yield with the cell density in the corresponding culture and this allows a better comparison of the peptide production rate between strains. The cell density is represented by the light absorbance at 600 nm with a unit of “A” (Absorbance unit).
A housefly injection assay was performed to determine the activity of the new mutants. Adult houseflies were immobilized with CO2 for 10 minutes, and then transferred to a CO2 pan to keep immobilized. Flies with weight between 12-20 mg were picked for injection. The new mutants and Av3b control were diluted in water to proper doses for injection. Next, a 0.5 μL peptide solution was injected into each housefly at the dorsal thorax using a hand-microapplicator with 1 cc all-glass syringe with 30 gauge straight needle. The injected flies were then transferred to a 2 oz. transparent portion container with a wet #4 filter paper. Fly knock-down was assessed at 5-hours post-injection. The activity of a given new mutant was then normalized to the activity of the Av3b production strain (control), using the fly knock-down score at 5 hours.

[1] = Stability of purified peptide spiked into Av3b fermentation beer (rpHPLC); assay type: physicochemical; settings: for resistance to fermentation beer protease cleavage compared to Av3b: spiked into Av3b fermentation beer pH 6.5, room temperature
Procedure: To determine the stability of the new mutants, Av3bM19, Av3bM23, Av3bM24, Av3bM25, Av3bM27, and Av3bM28 were purified and incubated in Av3b fermentation beer. The mutants were purified by cation-exchange chromatography using a GE SP-Sephadex C-25 column. The column was first calibrated with 30 mM sodium citrate buffer at pH 3.0. Then, the culture supernatant containing the secreted mutant peptide was loaded into the column to let the mutant peptide bind to the resin. The column was then washed with 30 mM sodium citrate buffer, pH 3.0, followed by washing with 30 mM sodium acetate, pH 4.0. Next, the bound mutant peptide was eluted by 1 M or 2 M NaCl with 30 mM sodium acetate, pH 4.0. The elution was then concentrated and buffer-exchanged to 30 mM sodium acetate, pH 4.0 using a 1 kD cutoff spin concentrator.
After purification, each of the mutants, Av3bM19, Av3bM23, Av3bM24, Av3bM25, Av3bM27, and Av3bM28, were evaluated for stability by spiking them into Av3b strain fermentation beer at pH 6.5. As a negative control, Av3b was evaluated in a pH 4.0 buffer. As a positive control, purified Av3b was evaluated by spiking into the same Av3b fermentation beer at pH 6.5. All stability experiments were performed at room temperature. […] The amount of peptide remaining relative to the beginning was determined by normalizing the peak area at different time to the one at 0 hour for each treatment. The degradation trend is visualized by the bar graph of the relative remaining peptide amount trend.

[2] = Proteolytic resistance of Av3b mutants during production-strain fermentation (rpHPLC); assay type: physicochemical; settings: for Degradation?: mutant strain fermentation at pH 6.5, 140 hours, rpHPLC; for degradation product during fermentation (HPLC): production strain fermentation at pH 6.5, rpHPLC
Procedure: The mutants in the table below were evaluated for stability in fermentation beer. Fermentation conditions and HPLC analysis were performed as described above. The mutant production strains were generated using YCT306 K. lactis strain. The production of mutants was performed as described in Example 2; fermentation conditions were performed using the same fermentation process described above regarding the Av3b production strain, with pH control at pH 6.5. […] To identify the mutant with proteolytic resistance, the mutant strains were grown under the same fermentation conditions as Av3b, and samples were taken throughout the fermentation process. The samples taken at 140 hour of fermentation process were analyzed in rpHPLC.

| Sequence | Activity (houseflies) | Degradation? [2] | other results |
| --- | --- | --- | --- |
| HSCCPCYWGGCPWGQNCYPEGCSGPK (ends and bridges not checked; cysteine pairing not given here) [Av3bM28] | Yes | – | housefly knock-down / insecticidal activity relative to Av3b (houseflies): without a concomitant reduction in housefly knock-down activity; also recorded: insecticidal activity |
| KSCCPCYWAGCPWGQNCYPEGCSGPK (ends and bridges not checked; cysteine pairing not given here) [Av3bM27] | Yes | – | housefly knock-down / insecticidal activity relative to Av3b (houseflies): behaved like Av3b; also recorded: insecticidal activity comparable to Av3b |
| KSCCPCYWGGCPWGQDCYPDGCDGPK (Av3bM19; VARIANT (1)..(26) Recombinant variant of Anemonia viridis Av3 peptide) | Yes | – | half-degradation time ([1]; Av3b production fermentation beer pH 6.5, room temperature (Example 11, FIG. 37)): 666 h; peptide remaining ([1]; fermentation beer pH 6.5, room temperature, 248 hours, HPLC peak area relative to starting amount): 95%; resistance to fermentation beer protease cleavage compared to Av3b [1]: greater resistance to yeast fermentation beer protease cleavage; also recorded: improved resistance to fermentation beer cleavage; also recorded: resist the degradation in Av3b fermentation beer; housefly knock-down / insecticidal activity relative to Av3b (houseflies): without a concomitant reduction in housefly knock-down activity; also recorded: insecticidal activity |
| KSCCPCYWGGCPWGQNCYPEGCDGP (ends and bridges not checked; cysteine pairing not given here) [Av3bM172] | – | Yes | – |
| KSCCPCYWGGCPWGQNCYPEGCDGPA (ends and bridges not checked; cysteine pairing not given here) [Av3bM156] | – | Yes | – |
| KSCCPCYWGGCPWGQNCYPEGCDGPG (ends and bridges not checked; cysteine pairing not given here) [Av3bM171] | – | Yes | – |
| KSCCPCYWGGCPWGQNCYPEGCDGPT (ends and bridges not checked; cysteine pairing not given here) [Av3bM157] | – | Yes | – |
| KSCCPCYWGGCPWGQNCYPEGCSGGV (ends and bridges not checked; cysteine pairing not given here) [Av3bM146] | – | Yes | – |
| KSCCPCYWGGCPWGQNCYPEGCSGPA (ends and bridges not checked; cysteine pairing not given here) [Av3bM97] | – | Yes | – |
| KSCCPCYWGGCPWGQNCYPEGCSGPD (ends and bridges not checked; cysteine pairing not given here) [Av3bM100] | – | Yes | – |
| KSCCPCYWGGCPWGQNCYPEGCSGPE (ends and bridges not checked; cysteine pairing not given here) [Av3bM101] | – | Yes | – |
| KSCCPCYWGGCPWGQNCYPEGCSGPH (ends and bridges not checked; cysteine pairing not given here) [Av3bM104] | – | Yes | – |
| KSCCPCYWGGCPWGQNCYPEGCSGPKG [Av3bM148] | – | No | degradation product during fermentation (HPLC) [2]: did not show any degradation product; also recorded: without apparent degradation products |
| KSCCPCYWGGCPWGQNCYPEGCSGPKVI [Av3bM168] | – | Yes | – |
| KSCCPCYWGGCPWGQNCYPEGCSGPN (ends and bridges not checked; cysteine pairing not given here) [Av3bM99] | – | Yes | – |
| KSCCPCYWGGCPWGQNCYPEGCSGPQ (ends and bridges not checked; cysteine pairing not given here) [Av3bM102] | – | Yes | – |

| Sequence | Activity (houseflies) | Degradation? [2] | other results |
| --- | --- | --- | --- |
| KSCCPCYWGGCPWGQNCYPEGCSGPR (ends and bridges not checked; cysteine pairing not given here) [Av3bM98] | – | No | degradation product during fermentation (HPLC) [2]: did not show any degradation product; also recorded: no degradation product |
| KSCCPCYWGGCPWGQNCYPEGCSGPT (ends and bridges not checked; cysteine pairing not given here) [Av3bM111] | – | Yes | – |
| KSCCPCYWGGCPWGQNCYPEGCSGRV (ends and bridges not checked; cysteine pairing not given here) [Av3bM147] | – | Yes | – |
| KSCCPCYWGGCPWGQNCYPEGCTGPG (ends and bridges not checked; cysteine pairing not given here) [Av3bM169] | – | Yes | – |
| KSCCPCYWGGCPWGQNCYPNGCSGPK (Av3bM23; VARIANT (1)..(26) Recombinant variant of Anemonia viridis Av3 peptide) | Yes | – | housefly knock-down / insecticidal activity relative to Av3b (houseflies): without a concomitant reduction in housefly knock-down activity; also recorded: insecticidal activity |
| KSCCPCYWGGCPWGQTCYPEGCSGPK (ends and bridges not checked; cysteine pairing not given here) [Av3bM22] | No | – | – |
| KSCCPCYWGGCPWGTNCYPEGCSGPK (ends and bridges not checked; cysteine pairing not given here) [Av3bM21] | No | – | – |
| KSCCPCYWGGCPWGTTCYPNGCDGPK (Av3bM20; VARIANT (1)..(26) Recombinant variant of Anemonia viridis Av3 peptide) | No | – | – |
| KSCCPCYWPGCPWGQNCYPEGCRGPD (ends and bridges not checked; cysteine pairing not given here) [Av3bM125] | – | – | half-degradation time ([1]; Av3b production fermentation beer pH 6.5, room temperature (Example 12, FIG. 39)): 369 h; resistance to fermentation beer protease cleavage compared to Av3b [1]: dramatically improved resistance to degradation |
| KSCCPCYWPGCPWGQNCYPEGCSGPK (ends and bridges not checked; cysteine pairing not given here) [Av3bM25] | Yes | – | housefly knock-down / insecticidal activity relative to Av3b (houseflies): without a concomitant reduction in housefly knock-down activity; also recorded: insecticidal activity |
| KSCCPCYWPPCPWGQNCYPEGCSGPK (ends and bridges not checked; cysteine pairing not given here) [Av3bM26] | No | – | – |
| QSCCPCYWGGCPWGQNCYPEGCSGPH (ends and bridges not checked; cysteine pairing not given here) [Av3bM30] | No | – | – |
| SSCCPCYWGGCPWGQNCYPEGCSGPK (ends and bridges not checked; cysteine pairing not given here) [Av3bM32] | No | – | – |
| SSCCPCYWGGCPWGQNCYPEGCSGPT (ends and bridges not checked; cysteine pairing not given here) [Av3bM33] | No | – | – |
| TSCCPCYWGGCPWGQNCYPEGCSGPK (ends and bridges not checked; cysteine pairing not given here) [Av3bM31] | No | – | – |
